B1: TPR t1 (parent)
chain: GACCAAUCUGCCCUCAGAGCUCGAGAACAUCUUCGGAUGCAGAGGAGGCAGGCUUCGGUGGCGCGAUAGCGCCAACGUCCUCAACCUCCAAUGCAUCCCACCACAUGAUGAUGCCUGAAGAGCCUUGGUUUUUUG

Variants of: B1
Experiment: polymerase ribozyme fitness, log enrichment relative to wild type (log ratio); higher = more active; in vitro selection for triplet polymerase activity
Method in brief: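 PCR was used to build mutant libraries for each subunit of a heterodimeric triplet polymerase ribozyme, which were then transcribed. A single in vitro selection round, in triplicate, used a frozen incubation at −7 °C and recovered extended constructs by gel excision, streptavidin beads and RT-PCR. Fitness is the logarithm of genotype enrichment relative to wild-type enrichment, averaged over replicates with inverse-variance weights. The logarithm is base 2, and after Illumina sequencing only genotypes with ≥10 input reads and ≥1 read per output were kept.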

Going from G44C G61A A95U G110A to G44A G52U, the “polymerase ribozyme fitness (log ratio)” value falls from -1.72 to -2.04.

Going from G44A U55C U81A to G45A G60A G110C, the “polymerase ribozyme fitness (log ratio)” value falls from -2.83 to -4.86.

Compared with A43G G110A, A43C C70U C82A A91U G93U U96C C124G is lower in “polymerase ribozyme fitness (log ratio)” value: -3.34 for the first, -3.67 for the second.

Going from A43C G47U G69U to G45U A46G G69A U106A, the “polymerase ribozyme fitness (log ratio)” value falls from -1.43 to -3.18.

Compared with G44A G110U, G45A U54A G61C is higher in “polymerase ribozyme fitness (log ratio)” value: -2.5 for the first, -0.932 for the second.

Going from G45C C49G U59G C89U to G44U C56A C102U, the “polymerase ribozyme fitness (log ratio)” value rises from -3.44 to -3.03.

First: G44C G61U C102A
Second: G44U G110C
The “polymerase ribozyme fitness (log ratio)” value of the first is higher: -2.81 for the first, -3.92 for the second.

First: G44C C86G
Second: A43U C62U G77A U126A
The “polymerase ribozyme fitness (log ratio)” value of the first is higher: -1.54 for the first, -5.02 for the second.

Compared with A43G U54G C89G C94G, G44A G45C is lower in “polymerase ribozyme fitness (log ratio)” value: -3.3 for the first, -3.88 for the second.

Going from G45U C49A C88U A105U G128A to A43G C70A, the “polymerase ribozyme fitness (log ratio)” value rises from -4.94 to -4.41.

First: A43C U112A G127C
Second: G45C G57C U59A G120A
The “polymerase ribozyme fitness (log ratio)” value of the first is lower: -2.51 for the first, -0.07 for the second.

First: G44A G63A C80A G110U C115G
Second: G44C G61C
The “polymerase ribozyme fitness (log ratio)” value of the first is lower: -7.37 for the first, -3.07 for the second.

Compared with G44U C98U U125G G127U, A43U C73U C86U U125G is higher in “polymerase ribozyme fitness (log ratio)” value: -3.43 for the first, -2.65 for the second.

First: A43C U78A C82A
Second: G44C C98U
The “polymerase ribozyme fitness (log ratio)” value of the first is lower: -3.68 for the first, -2.37 for the second.

Compared with G44U C98U, G45A C70U is higher in “polymerase ribozyme fitness (log ratio)” value: -2.19 for the first, -1.29 for the second.

Going from A43G C82G C114U A119G U131A to G44U C79G A91C C115A, the “polymerase ribozyme fitness (log ratio)” value falls from -2.01 to -5.13.

Compared with A43U C56A C115U, A43U U132A is higher in “polymerase ribozyme fitness (log ratio)” value: -2.52 for the first, -1.08 for the second.

First: G44U C62A A90G
Second: G44U C49A G110A
The “polymerase ribozyme fitness (log ratio)” value of the first is higher: -2.16 for the first, -3.22 for the second.

First: A43G A46U G63U U87A U92G G120C U130C
Second: G44C C114A
The “polymerase ribozyme fitness (log ratio)” value of the first is lower: -6 for the first, -2.01 for the second.

Going from G45C A50U to G44A U78C, the “polymerase ribozyme fitness (log ratio)” value rises from -2.42 to -1.33.

Compared with G45C U133G G135U, A43C C62U U87G C88G A90C G127C U132C is lower in “polymerase ribozyme fitness (log ratio)” value: -1.52 for the first, -3.94 for the second.

First: A43U A46U A105U C124G
Second: G45U C49A
The “polymerase ribozyme fitness (log ratio)” value of the first is lower: -4.04 for the first, -0.895 for the second.

Compared with A43G A50U G71U, G44C A91G is higher in “polymerase ribozyme fitness (log ratio)” value: -5.61 for the first, -1.82 for the second.

Compared with A43C C76U C98U G117U, G44C C70G is higher in “polymerase ribozyme fitness (log ratio)” value: -7.18 for the first, -3.8 for the second.

First: G44U G52A
Second: G44A A50C G63A C85A
The “polymerase ribozyme fitness (log ratio)” value of the first is higher: -0.705 for the first, -4.52 for the second.

Going from A43C G45C G63C G117U A118U G135A to G45A A50G G52A G61U U131G, the “polymerase ribozyme fitness (log ratio)” value rises from -5.43 to -3.62.

Compared with G44U C123A, G44A G77A U106C G117A is lower in “polymerase ribozyme fitness (log ratio)” value: 0.184 for the first, -3.03 for the second.

First: G45A G61C U81G
Second: G44A C53G G63U C102A A105G G117C
The “polymerase ribozyme fitness (log ratio)” value of the first is higher: -6.11 for the first, -7.23 for the second.

First: G44C G47C C49U C97A C123U
Second: G45C G60C C79A
The “polymerase ribozyme fitness (log ratio)” value of the first is lower: -6.09 for the first, -1.42 for the second.

First: G44U G45U G60C C101U A121G U131C
Second: G45A A108G
The “polymerase ribozyme fitness (log ratio)” value of the first is higher: -0.695 for the first, -2.36 for the second.

Compared with G44U C82U C89A C124A, G44C C88G is lower in “polymerase ribozyme fitness (log ratio)” value: 1.91 for the first, -2.18 for the second.

First: A43G C86U A91U C101U U131A
Second: G44C C72A
The “polymerase ribozyme fitness (log ratio)” value of the first is lower: -1.79 for the first, -0.169 for the second.

Going from A43C G60A to G44C G52A G127A, the “polymerase ribozyme fitness (log ratio)” value falls from -2.3 to -3.02.

First: A43G G60C C73A C88A
Second: A43U G44A C76G A111C
The “polymerase ribozyme fitness (log ratio)” value of the first is lower: -3.87 for the first, -2.36 for the second.

First: A43U U55A C72A G127A
Second: A43U C73A
The “polymerase ribozyme fitness (log ratio)” value of the first is lower: -2.75 for the first, -1.5 for the second.

First: A43U C73G
Second: A43U C73U
The “polymerase ribozyme fitness (log ratio)” value of the first is lower: -2.69 for the first, -0.963 for the second.

First: A43U C102A
Second: A43U G48U G120U
The “polymerase ribozyme fitness (log ratio)” value of the first is lower: -4.93 for the first, -2.2 for the second.

Compared with A43C U112A G113C, G44A A111G is higher in “polymerase ribozyme fitness (log ratio)” value: -1.28 for the first, -0.69 for the second.

First: A43U C49G
Second: G45A U106A A111G
The “polymerase ribozyme fitness (log ratio)” value of the first is lower: -3.61 for the first, -1.55 for the second.

Going from A43U C99A C101G G110A to G45A U112A, the “polymerase ribozyme fitness (log ratio)” value rises from -7.09 to 1.41.

First: G45A U59A C64U G128U
Second: G45U A100C A111G A121G U125C
The “polymerase ribozyme fitness (log ratio)” value of the first is lower: -2.82 for the first, -1.08 for the second.

With A43U A46U U106A U131A the “polymerase ribozyme fitness (log ratio)” value was -2.17.

Source: the RNAGym collection of RNA variant scans (doi:10.1073/pnas.2313332121)
